Numbering of substitutions follows the chain as printed. Names may count otherwise. Each block holds one molecule with its values, some of them ahead of it.
How the values were obtained:
[1] = target: PP2A Aα subunit (human) (UniProt P30153); experiment: MST
[2] = target: T1, PP2A Cα subunit (human, UniProt P67775 2-309); experiment: BLI
[3] = target: T2, PP2A(B55α) holoenzyme (human, UniProt P30153 1-589; P63151 1-447; P67775 2-309); experiment: BLI
[4] = target: T2, PP2A(B55α) holoenzyme; experiment: BLI; remark: listed apart in the source
[5] = target: T1, PP2A Cα subunit; experiment: cryo-EM structure

T2 sequence (P30153 whole entry, chain 1 of 3): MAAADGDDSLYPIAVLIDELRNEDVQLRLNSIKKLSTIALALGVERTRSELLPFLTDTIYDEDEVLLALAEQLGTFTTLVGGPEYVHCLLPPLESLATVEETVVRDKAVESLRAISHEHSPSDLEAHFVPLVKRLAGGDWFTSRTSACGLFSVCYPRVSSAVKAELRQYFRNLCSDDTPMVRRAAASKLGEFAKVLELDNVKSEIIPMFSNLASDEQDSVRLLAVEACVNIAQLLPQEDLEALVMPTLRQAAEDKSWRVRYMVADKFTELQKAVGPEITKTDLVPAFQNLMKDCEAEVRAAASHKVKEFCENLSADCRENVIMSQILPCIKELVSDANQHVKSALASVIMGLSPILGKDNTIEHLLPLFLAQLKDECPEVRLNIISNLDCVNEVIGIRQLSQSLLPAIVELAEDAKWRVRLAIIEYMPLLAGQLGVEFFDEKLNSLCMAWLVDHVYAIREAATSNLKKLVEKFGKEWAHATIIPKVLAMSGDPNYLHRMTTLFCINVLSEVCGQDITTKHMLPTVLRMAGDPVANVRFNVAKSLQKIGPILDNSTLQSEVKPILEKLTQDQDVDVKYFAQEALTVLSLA
T2 sequence (P63151 whole entry, chain 2 of 3): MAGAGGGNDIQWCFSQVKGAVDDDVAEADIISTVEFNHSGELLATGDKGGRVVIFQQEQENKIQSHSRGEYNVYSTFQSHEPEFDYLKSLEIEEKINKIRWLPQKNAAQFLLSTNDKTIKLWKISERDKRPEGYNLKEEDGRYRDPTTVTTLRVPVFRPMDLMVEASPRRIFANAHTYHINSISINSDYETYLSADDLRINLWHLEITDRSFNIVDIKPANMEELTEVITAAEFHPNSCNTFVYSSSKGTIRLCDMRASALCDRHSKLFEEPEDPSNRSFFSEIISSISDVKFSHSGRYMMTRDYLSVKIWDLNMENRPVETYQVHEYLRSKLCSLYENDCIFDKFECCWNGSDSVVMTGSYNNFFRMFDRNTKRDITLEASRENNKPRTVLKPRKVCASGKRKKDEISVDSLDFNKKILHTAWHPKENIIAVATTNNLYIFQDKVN
T2 sequence (P67775 2-309, chain 3 of 3): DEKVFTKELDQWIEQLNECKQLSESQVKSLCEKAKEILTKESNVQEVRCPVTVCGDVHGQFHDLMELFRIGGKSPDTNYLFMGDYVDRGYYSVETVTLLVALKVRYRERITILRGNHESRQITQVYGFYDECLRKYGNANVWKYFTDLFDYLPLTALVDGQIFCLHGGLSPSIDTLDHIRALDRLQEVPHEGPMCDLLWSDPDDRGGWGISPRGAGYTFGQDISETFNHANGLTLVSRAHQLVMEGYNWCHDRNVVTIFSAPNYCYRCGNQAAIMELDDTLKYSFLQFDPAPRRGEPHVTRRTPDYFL
Sequence of PP2A Aα subunit (human) (P30153 whole entry): as the sequence (P30153 whole entry, chain 1 of 3) above
T1 sequence (P67775 2-309): as the sequence (P67775 2-309, chain 3 of 3) above

Kd [1]: 800 µM
Molecule: tag-free ENSA^S67D (from UniProt O43768 1-121) (natural protein)

Kd [1]: 600 µM
Molecule: tag-free ENSA^WT (from UniProt O43768 1-121) (natural protein)

binding result [2]: binds | Kd [3]: 0.66 µM
B1: GST-ENSA^S67D-His6 (natural protein, human, UniProt O43768 1-121, looked up)
chain: MSQKQEEENPAEETGEEKQDTQEKEGILPERAEEAKLKAKYPSLGQKPGGSDFLMKRLQKGQKYFDDGDYNMAKAKMKNKQLPSAGPDKNLVTGDHIPTPQDLPQRKSSLVTSKLAGGQVE

binding result [4]: binds
B2: GST-ENSA^S67D E30A-His6 (natural protein, human, UniProt O43768 1-121, looked up)
chain: B1 chain with E30A

binding result [5]: binds
B3: His6-TEV site-ENSA^S67D (natural protein, human, UniProt O43768 1-121, looked up)
chain: B1 chain

Kd [3]: 1.45 µM
B4: GST-ENSA^WT-His6 (natural protein, human, UniProt O43768 1-121, looked up)
chain: B1 chain with D67S

binding result [4]: binds
B5: GST-ENSA^S67D K40A-His6 (natural protein, human, UniProt O43768 1-121, looked up)
chain: B1 chain with K40A

binding result [4]: binds
B6: GST-ENSA^S67D R57A-His6 (natural protein, human, UniProt O43768 1-121, looked up)
chain: B1 chain with R57A
